Measurements published in patent US20030175837A1.

Tests used:
[1] = molecular target: T1, human lymphotoxin (TNFβ) (human) (UniProt P01374); experiment: cell-based or functional assay
T1 sequence (looked up): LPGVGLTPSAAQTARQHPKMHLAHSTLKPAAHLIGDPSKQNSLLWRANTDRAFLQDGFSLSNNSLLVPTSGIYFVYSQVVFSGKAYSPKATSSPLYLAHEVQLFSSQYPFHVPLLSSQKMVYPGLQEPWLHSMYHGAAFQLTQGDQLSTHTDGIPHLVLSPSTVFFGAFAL

[2] = molecular target: human tumor necrosis factor-alpha (hTNFα) (human) (UniProt P01375); experiment: cell-based or functional assay
Chain of human tumor necrosis factor-alpha (hTNFα) (human) (P01375 77-233): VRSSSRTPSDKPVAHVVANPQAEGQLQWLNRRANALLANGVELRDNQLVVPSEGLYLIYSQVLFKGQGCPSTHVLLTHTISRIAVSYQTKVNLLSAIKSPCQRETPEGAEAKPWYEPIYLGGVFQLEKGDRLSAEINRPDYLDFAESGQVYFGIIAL

Molecule “p75-sf2 (complete extracellular domain of p75 fused to the IgG1 heavy chain) (from UniProt P20333 23-257) (Fc fusion)” has an amount needed for the same inhibition of human TNFβ, against p75P-sf2 [1] of 3 fold.

Molecule “p55-sf2 (p55 TNF receptor/IgG1 heavy chain single fusion with truncated light chain JCK) (from UniProt P19438 3-159) (Fc fusion)” has an amount needed for the same inhibition of human TNFβ, against p75P-sf2 [1] of 3 fold.

B1: chimeric mouse/human IgG1 anti-platelet mAb (7E3) (antibody, INN chains, looked up, V domains shown)
VH: EVQLQQSGTVLARPGASVKMSCEASGYTFTNYWMHWVKQRPGQGLEWIGAIYPGNSDTSYIQKFKGKAKLTAVTSTTSVYMELSSLTNEDSAVYYCTLYDGYYVFAYWGQGTLVTVSA
VL: EIVLTQSPVTLSVTPGDSVSLSCRASRDISNNLHWFQQTSHESPRLLIKYASQSMSGIPSRFSGSGSGTDFTLSINSVETEDFGMYFCQQTNSWPYTFGGGTKLEIK
modifications: chimeric IgG1
In the case of B1, the IL-6 secreted by FS-4 fibroblasts, 0.3 ng/ml rhTNF with 4 µg/ml antibody (no antibody: 1.36) [2] is reported as 1.6 ng/mL, the IL-6 secreted by FS-4 fibroblasts, 1.5 ng/ml rhTNF with 4 µg/ml antibody (no antibody: 2.00) [2] is reported as 1.96 ng/mL and the IL-6 secreted by FS-4 fibroblasts, 7.5 ng/ml rhTNF with 4 µg/ml antibody (no antibody: 2.56) [2] is reported as 2.16 ng/mL.
